According to the supplement of paper PMC11316812:
± gives the standard deviation of the averaged measurements.

What was measured:
[1] = system: MCF7; assay: percentage of EdU-negative (G0-arrested) nuclei per well, 72 h; higher = more G0 arrest; conditions: reference: sequence is the full UniProt precursor, the tested protein was the secreted form or ectodomain
[2] = system: hTERT-HMEC; assay: as above; conditions: reference: sequence is the full UniProt precursor, the tested protein was the secreted form or ectodomain
[3] = protein concentration 0.01975 µM
[4] = protein concentration 0.1975 µM
[5] = protein concentration 0.0079375 µM
[6] = protein concentration 0.00885714 µM
[7] = protein concentration 0.0357143 µM
[8] = protein concentration 0.079375 µM
[9] = protein concentration 0.0885714 µM
[10] = protein concentration 0.357143 µM
[11] = protein concentration 0.0225 µM
[12] = protein concentration 0.0257143 µM
[13] = protein concentration 0.257143 µM
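Also: secreted proteins added to cultured cells, EdU pulse at the end, nuclei found by Hoechst imaging, EdU status from nuclear versus surrounding ring intensity ratio, PBS as neutral control.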

Sequence: MKPPFLLALVVCSVVSTNLKMVSKRNSVDGCIDWSVDLKTYMALAGEPVRVKCALFYSYIRTNYSTAQSTGLRLMWYKNKGDLEEPIIFSEVRMSKEEDSIWFHSAEAQDSGFYTCVLRNSTYCMKVSMSLTVAENESGLCYNSRIRYLEKSEVTKRKEISCPDMDDFKKSDQEPDVVWYKECKPKMWRSIIIQKGNALLIQEVQEEDGGNYTCELKYEGKLVRRTTELKVTALLTDKPPKPLFPMENQPSVIDVQLGKPLNIPCKAFFGFSGESGPMIYWMKGEKFIEELAGHIREGEIRLLKEHLGEKEVELALIFDSVVEADLANYTCHVENRNGRKHASVLLRKKDLIYKIELAGGLGAIFLLLVLLVVIYKCYNIELMLFYRQHFGADETNDDNKEYDAYLSYTKVDQDTLDCDNPEEEQFALEVLPDVLEKHYGYKLFIPERDLIPSGTYMEDLTRYVEQSRRLIIVLTPDYILRRGWSIFELESRLHNMLVSGEIKVILIECTELKGKVNCQEVESLKRSIKLLSLIKWKGSKSSKLNSKFWKHLVYEMPIKKKEMLPRCHVLDSAEQGLFGELQPIPSIAMTSTSATLVSSQADLPEFHPSDSMQIRHCCRGYKHEIPATTLPVPSLGNHHTYCNLPLTLLNGQLPLNNTLKDTQEFHRNSSLLPLSSKELSFTSDIW [Q9NP60]
- percentage of EdU-negative [1, 3]: 24.9 ± 2.6%
- percentage of EdU-negative [1, 4]: 26.8 ± 1.9%
- percentage of EdU-negative [2, 3]: 4.91 ± 0.99%
- percentage of EdU-negative [2, 4]: 8.95 ± 0.26%

Sequence: MKPPRPVRTCSKVLVLLSLLAIHQTTTAEKNGIDIYSLTVDSRVSSRFAHTVVTSRVVNRANTVQEATFQMELPKKAFITNFSMIIDGMTYPGIIKEKAEAQAQYSAAVAKGKSAGLVKATGRNMEQFQVSVSVAPNAKITFELVYEELLKRRLGVYELLLKVRPQQLVKHLQMDIHIFEPQGISFLETESTFMTNQLVDALTTWQNKTKAHIRFKPTLSQQQKSPEQQETVLDGNLIIRYDVDRAISGGSIQIENGYFVHYFAPEGLTTMPKNVVFVIDKSGSMSGRKIQQTREALIKILDDLSPRDQFNLIVFSTEATQWRPSLVPASAENVNKARSFAAGIQALGGTNINDAMLMAVQLLDSSNQEERLPEGSVSLIILLTDGDPTVGETNPRSIQNNVREAVSGRYSLFCLGFGFDVSYAFLEKLALDNGGLARRIHEDSDSALQLQDFYQEVANPLLTAVTFEYPSNAVEEVTQNNFRLLFKGSEMVVAGKLQDRGPDVLTATVSGKLPTQNITFQTESSVAEQEAEFQSPKYIFHNFMERLWAYLTIQQLLEQTVSASDADQQALRNQALNLSLAYSFVTPLTSMVVTKPDDQEQSQVAEKPMEGESRNRNVHSGSTFFKYYLQGAKIPKPEASFSPRRGWNRQAGAAGSRMNFRPGVLSSRQLGLPGPPDVPDHAAYHPFRRLAILPASAPPATSNPDPAVSRVMNMKIEETTMTTQTPAPIQAPSAILPLPGQSVERLCVDPRHRQGPVNLLSDPEQGVEVTGQYEREKAGFSWIEVTFKNPLVWVHASPEHVVVTRNRRSSAYKWKETLFSVMPGLKMTMDKTGLLLLSDPDKVTIGLLFWDGRGEGLRLLLRDTDRFSSHVGGTLGQFYQEVLWGSPAASDDGRRTLRVQGNDHSATRERRLDYQEGPPGVEISCWSVEL
- percentage of EdU-negative [1, 5]: 26.1 ± 0.6%
- percentage of EdU-negative [1, 6]: 24.7 ± 1.9%
- percentage of EdU-negative [1, 7]: 25.598 ± 0.0074%
- percentage of EdU-negative [1, 8]: 27.8 ± 0.46%
- percentage of EdU-negative [1, 9]: 22.7 ± 1.4%
- percentage of EdU-negative [1, 10]: 24.7 ± 1.2%
- percentage of EdU-negative [2, 5]: 4.26 ± 0.31%
- percentage of EdU-negative [2, 6]: 5.26 ± 0.59%
- percentage of EdU-negative [2, 7]: 4.65 ± 0.14%
- percentage of EdU-negative [2, 8]: 6.25 ± 0.86%
- percentage of EdU-negative [2, 9]: 5.26 ± 0.17%
- percentage of EdU-negative [2, 10]: 5.86 ± 0.71%

Sequence: MKPVLPLQFLVVFCLALQLVPGSPKQRVLKYILEPPPCISAPENCTHLCTMQEDCEKGFQCCSSFCGIVCSSETFQKRNRIKHKGSEVIMPAN [Q8IUB5]
- percentage of EdU-negative [1, 11]: 25.88 ± 0.11%
- percentage of EdU-negative ([1]; protein concentration 0.225 µM): 23.6 ± 1%
- percentage of EdU-negative [2, 11]: 4.99 ± 0.22%
- percentage of EdU-negative ([2]; protein concentration 0.225 µM): 5.21 ± 0.23%

Sequence: MKPWILLLVMFISGVVMLLPVLGSFWNKDPFLDMIRETEQCWVQPPYKYCEKRCTKIMTCVRPNHTCCWTYCGNICLDNEEPLKSMLNP [Q8NEX5]
- percentage of EdU-negative [1, 12]: 26 ± 0.26%
- percentage of EdU-negative [1, 13]: 26.31 ± 0.064%
- percentage of EdU-negative [2, 12]: 5.54 ± 0.81%
- percentage of EdU-negative [2, 13]: 5.1 ± 0.81%
